We go through three proteins from article PMC6641176 (ACS Omega, 2017).

Residue numbers refer to the chain shown, from its start. In names and notes the source's numbering stands.

Series [1] concerns the molecule itself. As to the kind of experiment: SDS-PAGE and western blot.
Series [2] concerns the molecule itself. The series is described as follows: SEC.

B1: AqpZ-C20S (Escherichia coli aquaporin Z, C20S mutant) (natural protein)
chain: MFRKLAAECFGTFWLVFGGSGSAVLAAGFPELGIGFAGVALAFGLTVLTMAFAVGHISGGHFNPAVTIGLWAGGRFPAKEVVGYVIAQVVGGIVAAALLYLIASGKTGFDAAASGFASNGYGEHSPGGYSMLSALVVELVLSAGFLLVIHGATDKFAPAGFAPIAIGLALTLIHLISIPVTNTSVNPARSTAVAIFQGGWALEQLWFFWVVPIVGGIIGGLIYRTLLEKRD
Take B1: the “stoichiometry N” value in series [1] worked out at 4.

B2: AqpZ-G144F (in the AqpZ-C20S background) (natural protein, Escherichia coli)
chain: B1 chain with G144F
For the protein B2, the “stoichiometry N” value in series [2] stood at 4.

B3: AqpZ-I176G (in the AqpZ-C20S background) (natural protein, Escherichia coli)
chain: B1 chain with I176G
For B3, the “stoichiometry N” value in series [2] was determined as 4.
